Data from PMC2666074 (Biochemistry, 2008).

B1: SIP(189–203) (peptide)
chain: SEGLMNVLKKIYEDG
B2: SIP(178–229), SGS domain of SIP (domain or fragment)
chain: EKPSYDTEADPSEGLMNVLKKIYEDGDDDMKRTINKAWVESREKQAREDTEF
B3: SIP(189–219) (peptide, UniProt Q9CXW3 189-219, looked up)
chain: SEGLMNVLKKIYEDGDDDMKRTINKAWVESR

Tests used:
S100A6 (rabbit, intact) [1] = target: T1, S100A6 (rabbit, intact) (rabbit, UniProt P30801 1-90); test: ITC
S100A6 (rabbit, intact) [2] = target: T1, S100A6 (rabbit, intact); test: NMR titration
S100A6 (rabbit, intact) [3] = target: T1, S100A6 (rabbit, intact); test: native MS
cross-linking = target: the molecule itself; test: cross-linking

Row | Binder | Kd (S100A6 (rabbit, intact) [1]) [µM] | binding result (S100A6 (rabbit, intact) [1]) | stoichiometry N (S100A6 (rabbit, intact) [2]) [SIP per S100A6 dimer] | stoichiometry N (S100A6 (rabbit, intact) [3]) | binding result (cross-linking)
1 | B1 | 20 |  |  |  | 
2 | B2 |  | binds |  |  | 
3 | B3 | 5 |  | 2 | 2 SIP(189–219) per S100A6 dimer | binds
